Assay results taken from patent publication US20220073646A1 (Hoffmann-La Roche, published 2022).
Read-outs that look alike come from different tables or passages of the source. Each block holds one binder with its values, some of them ahead of it.

Key:
[1] = molecular target: T1, human FAP (His-tagged ectodomain) (human, UniProt Q12884 27-760); assay: SPR, FAP captured via anti-His, 1:1 fit
T1 construct: SPR texts say 'human FAP' or 'His-tagged ... dimeric FAP'; also called hu FAP; human FAP (analyte 2)
Description: (§1) The capacity of the bispecific constructs to bind human, murine and cynomolgus FAP was assessed by surface plasmon resonance (SPR). All SPR experiments were performed on a Biacore T200 (Biacore) at 25° C. with HBS-EP as running buffer (0.01 M HEPES pH 7.4, 0.15 M NaCl, 3 mM EDTA, 0.005% Surfactant P20, (Biacore).
(§2) Immobilization levels for the anti-His antibody of up to 18000 resonance units (RU) were used.
(§3) Following the capture step, the bispecific constructs as well as control molecules were immediately passed over the chip surface at a concentration ranging from 0.006-100 nM with a flow rate of 30 μL/minute for 280 s and a dissociation phase of 180 s. Bulk refractive index differences were corrected for by subtracting the response obtained in a reference flow cell, where no FAP was immobilized. Affinity was determined using the Langmuir 1:1 curve fitting. For bivalent binding the same 1:1 fitting was used leading to an apparent KD value.

[2] = molecular target: T2, murine FAP (His-tagged ectodomain) (mouse, UniProt P97321 27-761); assay: SPR, FAP captured via anti-His, 1:1 fit
T2 construct: also called mu FAP
Description: as §1, §2, §3

[3] = molecular target: T3, cynomolgus FAP (His-tagged ectodomain) (cynomolgus, UniProt Q12884 27-760 (human entry)); assay: SPR, FAP captured via anti-His, 1:1 fit
T3 construct: also called cynoFAP
Description: as §1, §2, §3

[4] = molecular target: T1, human FAP (His-tagged ectodomain); assay: SPR, FAP captured via anti-His, 1:1 fit, apparent KD (bivalent)
Description: as §1, §2, §3

[5] = molecular target: T2, murine FAP (His-tagged ectodomain); assay: as above
Description: as §1, §2, §3

[6] = molecular target: T4, human fibroblast activation protein (huFAP) on cells (human, UniProt Q12884 1-760); assay: flow cytometry, WM266-4
T4 construct: also called NIH/3T3-huFAP clone 39; NIH/3T3-huFAP clone 19

[7] = molecular target: T5, recombinant murine GITR Fc(kih) (murine, UniProt P0DOX5 223-449 = IgG part, biotin on C-terminal Avi tag); assay: SPR Biacore T200
T5 construct: also called mu GITR-Fc
Description: All SPR experiments were performed on a Biacore T200 at 25° C. with HBS-EP as running buffer (0.01 M HEPES pH 7.4, 0.15 M NaCl, 3 mM EDTA, 0.005% Surfactant P20, Biacore, Freiburg/Germany). In the same experiment, the species selectivity and the avidity of the interaction between the GITR binder (human IgG1 P329GLALA), and recombinant GITR (human, cyno and murine) was determined. […] Immobilization levels up to 100 resonance units (RU) were used.
Anti-GITR human IgG1 P329GLALA antibody was passed at a concentration range from 0.2 to 200 nM (4-fold dilution) with a flow of 30 μL/minute through the flow cells over 120 seconds. Complex dissociation was monitored for 180 seconds. Bulk refractive index differences were corrected for by subtracting the response obtained in a reference flow cell, where no protein was immobilized.

[8] = molecular target: T6, recombinant human GITR Fc(kih) (human, UniProt P0DOX5 223-449 = IgG part, biotin on C-terminal Avi tag where used biotinylated); assay: SPR, captured IgG, GITR Fc(kih) analyte
T6 construct: also called hu GITR-Fc; human monomeric GITR-Fc fusion
Description: (§4) In the same experiment, the affinities of the interaction between the GITR antibody (human IgG1 P329GLALA) to recombinant GITR (human and cyno) were determined. Anti-human Fab antibody (Biacore, Freiburg/Germany) was directly coupled on a CM5 chip at pH 5.0 using the standard amine coupling kit (Biacore, Freiburg/Germany). The immobilization level was approximately 7000 RU. The GITR antibody was captured for 90 seconds at 5 nM. […] The dissociation was monitored for 180 seconds. Bulk refractive index differences were corrected for by subtracting the response obtained on reference flow cell.

[9] = molecular target: T7, recombinant cynomolgus GITR Fc(kih) (cynomolgus, UniProt P0DOX5 223-449 = IgG part, biotin on C-terminal Avi tag where used biotinylated); assay: SPR, captured IgG, GITR Fc(kih) analyte
T7 construct: also called cy GITR-Fc
Description: as §4

[10] = molecular target: T8, human OX40 on cells (human, UniProt P43489 29-277); assay: cell-based or functional assay
T8 sequence: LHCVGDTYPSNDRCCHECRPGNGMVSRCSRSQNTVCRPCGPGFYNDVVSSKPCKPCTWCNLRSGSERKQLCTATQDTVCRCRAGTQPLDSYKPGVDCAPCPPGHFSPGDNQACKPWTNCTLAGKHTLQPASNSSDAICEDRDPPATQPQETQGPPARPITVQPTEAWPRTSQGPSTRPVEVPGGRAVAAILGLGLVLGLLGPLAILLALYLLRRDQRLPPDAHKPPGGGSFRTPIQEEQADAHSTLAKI

[11] = molecular target: T8, human OX40 on cells; assay: cell-based or functional assay; remark: listed apart in the source
[12] = molecular target: T4, human fibroblast activation protein …; assay: flow cytometry, WM266-4 cells
[13] = molecular target: T9, recombinant human OX40 His (human); assay: SPR, captured IgG, OX40 His analyte
T9 construct: ectodomain with avi and hexahistidine tag; also called human Ox40 avi His
T9 chain: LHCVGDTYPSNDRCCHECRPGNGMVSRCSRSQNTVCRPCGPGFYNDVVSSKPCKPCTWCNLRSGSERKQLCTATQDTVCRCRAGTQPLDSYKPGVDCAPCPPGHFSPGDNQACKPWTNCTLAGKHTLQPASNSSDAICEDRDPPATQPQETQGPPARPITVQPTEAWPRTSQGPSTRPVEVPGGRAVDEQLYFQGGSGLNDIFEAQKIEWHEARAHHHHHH
Description: (§5) All SPR experiments were performed on a Biacore T200 at 25° C. with HBS-EP as running buffer (0.01 M HEPES pH 7.4, 0.15 M NaCl, 3 mM EDTA, 0.005% Surfactant P20, Biacore, Freiburg/Germany).
Setup 2) Anti-human Fc antibody (Biacore, Freiburg/Germany) was directly coupled on a CM5 chip at pH 5.0 using the standard amine coupling kit (Biacore, Freiburg/Germany). The immobilization level was approximately 8000 RU. […] The dissociation was monitored for 120 seconds. Bulk refractive index differences were corrected for by subtracting the response obtained on reference flow cell.

[14] = molecular target: T10, recombinant human OX40 Fc(kih) (human, UniProt P0DOX5 223-449 = IgG part, biotin on C-terminal Avi tag where used biotinylated); assay: SPR, captured IgG, OX40 Fc(kih) analyte
T10 construct: antigen Fc knob chain plus Fc hole chain; also called monomeric human OX40 antigen Fc(kih) fusion; biotinylated human OX40
Description: as §5
Setup 1) Anti-human Fab antibody (Biacore, Freiburg/Germany) was directly coupled on a CM5 chip at pH 5.0 using the standard amine coupling kit (Biacore, Freiburg/Germany). The immobilization level was approximately 9000 RU. […] The dissociation was monitored for 120 seconds. Bulk refractive index differences were corrected for by subtracting the response obtained on reference flow cell.

[15] = molecular target: T8, human OX40 on cells; assay: flow cytometry, activated human CD4 T cells
Description: Plates were centrifuged 4 minutes with 400×g and at 4° C. and supernatant was flicked off. Cell were washed once with 200 μL 4° C. cold FACS buffer (DPBS supplied with 2% FBS, 5 mM EDTA pH8 (Amresco, Cat. No. E177) and 7.5 mM Sodium azide (Sigma-Aldrich S2002)). […] Plates were washed four times with 200 μL/well 4° C. FACS buffer to remove unbound construct.
Plates where washed twice with 200 μL/well 4° C.

[16] = molecular target: T8, human OX40 on cells; assay: flow cytometry, activated human CD4 T cells; remark: listed apart in the source
[17] = molecular target: recombinant cynomolgus OX40 Fc(kih) (cynomolgus, UniProt P0DOX5 223-449 = IgG part, biotin on C-terminal Avi tag where used biotinylated); assay: SPR, captured IgG, cyno OX40 Fc(kih) analyte
Description: as §5
Anti-human Fab antibody (Biacore, Freiburg/Germany) was directly coupled on a CM5 chip at pH 5.0 using the standard amine coupling kit (Biacore, Freiburg/Germany). The immobilization level was approximately 9000 RU. […] The dissociation was monitored for 120 seconds. Bulk refractive index differences were corrected for by subtracting the response obtained on reference flow cell.

[18] = molecular target: T11, mouse 4-1BB on activated mouse splenocytes (mouse, UniProt P20334 24-256); assay: flow cytometry, activated murine CD4 T cells
T11 sequence (P20334 24-256 limits assumed): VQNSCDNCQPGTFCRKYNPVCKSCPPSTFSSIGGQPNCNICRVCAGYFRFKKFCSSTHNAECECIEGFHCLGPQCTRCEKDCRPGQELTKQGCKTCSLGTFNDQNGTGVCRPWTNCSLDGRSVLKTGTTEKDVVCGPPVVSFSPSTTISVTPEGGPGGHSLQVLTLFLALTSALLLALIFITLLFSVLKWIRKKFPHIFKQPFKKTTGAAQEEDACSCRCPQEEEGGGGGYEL
Description: (§6) Cells were incubated for 30 min at 4° C., washed twice with 200 μL/well FACS-buffer and resuspended for fixation with 50 μL/well DPBS containing 1% (v/v) formaldehyde. The next day cells were resuspended in 200 μL/well FACS buffer and acquired using the 2-laser Cantoll (BD Bioscience with DIVA software) or 5-laser Fortessa (BD Bioscience with DIVA software). Gates were set on CD8⁺ and CD4⁺ T cells and the median fluorescence intensity (MFI) of the secondary detection antibody was used to analyze binding of primary antibodies. Using Graph Pad Prism (Graph Pad Software Inc.) data was baselined by subtracting the blank values (no primary antibody added) and the EC₅₀ values were calculated using non-linear regression curve fit (robust fit).

[19] = molecular target: T11, mouse 4-1BB on activated mouse …; assay: flow cytometry, activated murine CD8 T cells
Description: as §6

[20] = molecular target: T4, human fibroblast activation protein …; assay: flow cytometry, WM266-4; remark: listed apart in the source
Description: In some assays WM266-4 cells were pre-labeled with PKH-26 Red Fluorescence Cell linker Kit (Sigma, Cat.-No. PKH26GL) as described in Example 2.3.2 to allow separation of these tumor cells from other cells present (e.g. human PBMC).
Plates were centrifuged 4 minutes, 400×g at 4° C. and supernatants were flicked off. Cells were washed once with 200 μL DPBS and pellets were resuspended by a short and gentle vortex. All samples were resuspended in 50 μL/well of 4° C. cold FACS buffer containing the bispecific antigen binding molecules (primary antibody) at the indicated range of concentrations (titrated) and incubated for 120 minutes at 4° C. Afterwards the cells were washed four times with 200 μL 4° C.

- Kd [1]: 0.752 nM
- Kd [2]: 4.79 nM
- Kd [3]: 0.532 nM
B1: OX40(49B4)/FAP(4B9) P329GLALA IgG1 1+1 (bispecific antibody, V domains shown)
VH 1: QVQLVQSGAEVKKPGSSVKVSCKASGGTFSSYAISWVRQAPGQGLEWMGGIIPIFGTANYAQKFQGRVTITADKSTSTAYMELSSLRSEDTAVYYCAREYYRGPYDYWGQGTTVTVSS
VL 1: DIQMTQSPSTLSASVGDRVTITCRASQSISSWLAWYQQKPGKAPKLLIYDASSLESGVPSRFSGSGSGTEFTLTISSLQPDDFATYYCQQYSSQPYTFGQGTKVEIK
VH 2: EVQLLESGGGLVQPGGSLRLSCAASGFTFSSYAMSWVRQAPGKGLEWVSAIIGSGASTYYADSVKGRFTISRDNSKNTLYLQMNSLRAEDTAVYYCAKGWFGGFNYWGQGTLVTVSS
VL 2: EIVLTQSPGTLSLSPGERATLSCRASQSVTSSYLAWYQQKPGQAPRLLINVGSRRATGIPDRFSGSGSGTDFTLTISRLEPEDFAVYYCQQGIMLPPTFGQGTKVEIK
notes: only variable domains of 49B4 and 4B9; human IgG1 P329G LALA

- Kd [4]: 0.933 nM
- Kd [5]: 0.00049 nM
B2: 28H1 IgG (antibody, V domains shown)
VH: EVQLLESGGGLVQPGGSLRLSCAASGFTFSSHAMSWVRQAPGKGLEWVSAIWASGEQYYADSVKGRFTISRDNSKNTLYLQMNSLRAEDTAVYYCAKGWLGNFDYWGQGTLVTVSS
VL: EIVLTQSPGTLSLSPGERATLSCRASQSVSRSYLAWYQQKPGQAPRLLIIGASTRATGIPDRFSGSGSGTDFTLTISRLEPEDFAVYYCQQGQVIPPTFGQGTKVEIK
notes: anti-FAP control IgG

- EC50 [6]: 5.51 nM
- Kd [5]: 0.00441 nM
B3: OX40(49B4)/FAP(28H1) P329GLALA IgG1 4+2 (bispecific antibody)
heavy: not shown
light 1: DIQMTQSPSTLSASVGDRVTITCRASQSISSWLAWYQQKPGKAPKLLIYDASSLESGVPSRFSGSGSGTEFTLTISSLQPDDFATYYCQQYSSQPYTFGQGTKVEIKRTVAAPSVFIFPPSDRKLKSGTASVVCLLNNFYPREAKVQWKVDNALQSGNSQESVTEQDSKDSTYSLSSTLTLSKADYEKHKVYACEVTHQGLSSPVTKSFNRGEC
light 2: EVQLLESGGGLVQPGGSLRLSCAASGFTFSSHAMSWVRQAPGKGLEWVSAIWASGEQYYADSVKGRFTISRDNSKNTLYLQMNSLRAEDTAVYYCAKGWLGNFDYWGQGTLVTVSSASVAAPSVFIFPPSDEQLKSGTASVVCLLNNFYPREAKVQWKVDNALQSGNSQESVTEQDSKDSTYSLSSTLTLSKADYEKHKVYACEVTHQGLSSPVTKSFNRGEC
notes: also called 4+2 (49B4/28H1)

- binding result [7]: no binding (tested: 0.2 to 200 nM IgG)
- Kd [8]: 30 nM
- koff [8]: 0.0011 s⁻¹
- kon [8]: 38000 M⁻¹ s⁻¹
- Kd [9]: 190 nM
- koff [9]: 0.014 s⁻¹
- kon [9]: 73000 M⁻¹ s⁻¹
B4: 6C8 P329GLALA IgG1 (antibody, V domains shown)
VH: QVTLRESGPALVKPTQTLTLTCTFSGFSLSTSGMGVGWIRQPPGKALEWLAHIWWDDDKYYQPSLKSRLTISKDTSKNQVVLTMTNMDPVDTATYYCARTRRYFPFAYWGQGTLVTVSS
VL: EIVMTQSPATLSVSPGERATLSCKASQNVGTNVAWYQQKPGQAPRLLIYSASYRYSGIPARFSGSGSGTEFTLTISSLQSEDFAVYYCQQYNTDPLTFGGGTKVEIKR
notes: prepared according to WO 2006/105021; also called benchmark antibody 6C8

- EC50 of NFκB activation in HeLa_hOx40_NFκB_luc1 reporter cells with secondary anti-human IgG Fcγ antibody [10]: 0.66 nM
- EC50 of rescuing suboptimal TCR stimulation with plate-immobilized anti-OX40 binder (preactivated human CD4 T cells) [11]: 0.003 nM
- binding result [12]: no binding
- Kd [13]: 31 nM
- koff [13]: 0.002 s⁻¹
- kon [13]: 65000 M⁻¹ s⁻¹
- Kd [14]: 28 nM
- koff [14]: 0.0045 s⁻¹
- kon [14]: 160000 M⁻¹ s⁻¹
- EC50 [15]: 0.59 nM
- EC50 [16]: 0.59 nM
- Kd [17]: 670 nM
- koff [17]: 0.096 s⁻¹
- kon [17]: 140000 M⁻¹ s⁻¹
B5: 8H9 P329GLALA IgG1 (antibody, V domains shown)
VH: QVQLVQSGAEVKKPGSSVKVSCKASGGTFSSYAISWVRQAPGQGLEWMGGIIPIFGTANYAQKFQGRVTITADKSTSTAYMELSSLRSEDTAVYYCAREYGWMDYWGQGTTVTVSS
VL: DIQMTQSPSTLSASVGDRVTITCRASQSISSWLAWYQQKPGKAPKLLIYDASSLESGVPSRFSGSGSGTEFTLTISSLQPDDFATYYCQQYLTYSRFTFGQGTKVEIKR
notes: anti-OX40; also called clone 8H9 hu IgG1

- binding result [7]: no binding (tested: 0.2 to 200 nM IgG)
- Kd [8]: 29 nM
- Kd [9]: 1200 nM
B6: 8A06 P329GLALA IgG1 (antibody, V domains shown)
VH: QVQLVQSGAEVKKPGSSVKVSCKASGGTFSSYAISWVRQAPGQGLEWMGGIIPIFGTANYAQKFQGRVTITADKSTSTAYMELSSLRSEDTAVYYCARGYYAIDYWGQGTTVTVSS
VL: SSELTQDPAVSVALGQTVRITCQGDSLRSYYASWYQQKPGQAPVLVIYGKNNRPSGIPDRFSGSSSGNTASLTITGAQAEDEADYYCNSPQTSGSAVFGGGTKLTVLG
notes: also called anti-GITR 8A06 IgG

- EC50 [18]: 11.2 nM
- EC50 [19]: 17.9 nM
B7: 20G2 mu IgG1 κ DAPG (antibody, V domains shown)
VH: QVQLVQSGAEVKKPGSSVKVSCKASGGTFSSYAISWVRQAPGQGLEWMGGIIPIFGTANYAQKFQGRVTITADKSTSTAYMELSSLRSEDTAVYYCARSYYWESYPFDYWGQGTTVTVSS
VL: DIQMTQSPSTLSASVGDRVTITCRASQSISSWLAWYQQKPGKAPKLLIYDASSLESGVPSRFSGSGSGTEFTLTISSLQPDDFATYYCQQQHSYYTFGQGTKVEIK
notes: mouse IgG1 kappa with DAPG mutations; also called 20G2 mouse IgG1 DAPG

- EC50 [18]: 9.92 nM
- EC50 [19]: 18.5 nM
B8: 20G2 mu IgG1 κ wt (antibody, V domains shown)
VH: QVQLVQSGAEVKKPGSSVKVSCKASGGTFSSYAISWVRQAPGQGLEWMGGIIPIFGTANYAQKFQGRVTITADKSTSTAYMELSSLRSEDTAVYYCARSYYWESYPFDYWGQGTTVTVSS
VL: DIQMTQSPSTLSASVGDRVTITCRASQSISSWLAWYQQKPGKAPKLLIYDASSLESGVPSRFSGSGSGTEFTLTISSLQPDDFATYYCQQQHSYYTFGQGTKVEIK
notes: mouse IgG1 kappa wild type; also called 20G2 mouse IgG1 wildtype

- EC50 [20]: 2.88 nM
- EC50 [16]: 0.93 nM
B9: 8H9/FAP P329GLALA IgG1 2+2 (bispecific antibody)
heavy: not shown
light 1: not shown
light 2: EIVLTQSPGTLSLSPGERATLSCRASQSVSRSYLAWYQQKPGQAPRLLIIGASTRATGIPDRFSGSGSGTDFTLTISRLEPEDFAVYYCQQGQVIPPTFGQGTKVEIKSSASTKGPSVFPLAPSSKSTSGGTAALGCLVKDYFPEPVTVSWNSGALTSGVHTFPAVLQSSGLYSLSSVVTVPSSSLGTQTYICNVNHKPSNTKVDKKVEPKSCD
notes: also called bispecific bivalent 2+2 construct 8H9; 8H9 FAP 2+2
